From article PMC4835091, “Characterization of the FtsZ C-Terminal Variable (CTV) Region in Z-Ring Assembly and Interaction with the Z-Ring Stabilizer ZapD in E. coli Cytokinesis” (PLoS ONE, 2016)
Numbering of substitutions follows the chain as printed. Names may count otherwise.

T1: GAL4 BD-ZapD fusion (E. coli, UniProt P36680 1-247)
T1 construct: ZapD, Z-ring stabilizer of E. coli; also called pDEST-GBKT7-zapD; source: yeast two-hybrid fusion (pDEST-GBKT7-zapD in S. cerevisiae PJ69-4A, diploid after mating)
T1 sequence (looked up): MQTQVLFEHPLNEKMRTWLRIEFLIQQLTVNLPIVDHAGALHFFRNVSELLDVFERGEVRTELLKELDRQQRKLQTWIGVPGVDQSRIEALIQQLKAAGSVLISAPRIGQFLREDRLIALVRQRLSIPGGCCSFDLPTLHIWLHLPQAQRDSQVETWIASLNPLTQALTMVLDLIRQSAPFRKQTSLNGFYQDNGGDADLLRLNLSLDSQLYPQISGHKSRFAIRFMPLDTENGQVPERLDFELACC

B1: GAL4 AD-FtsZ(NRNKRG) fusion (natural protein, E. coli | B. subtilis)
chain: MFEPMELTNDAVIKVIGVGGGGGNAVEHMVRERIEGVEFFAVNTDAQALRKTAVGQTIQIGSGITKGLGAGANPEVGRNAADEDRDALRAALEGADMVFIAAGMGGGTGTGAAPVVAEVAKDLGILTVAVVTKPFNFEGKKRMAFAEQGITELSKHVDSLITIPNDKLLKVLGRGISLLDAFGAANDVLKGAVQGIAELITRPGLMNVDFADVRTVMSEMGYAMMGSGVASGEDRAEEAAEMAISSPLLEDIDLSGARGVLVNITAGFDLRLDEFETVGNTIRAFASDNATVVIGTSLDPDMNDELRVTVVATGIGMDKRPEITLVTNKQVQQPVMDRYQQHGMAPLTQEQKPVAKVVNDNAPQTAKEPDYLDIPAFLRNRNKRG
notes: FtsZ of E. coli up to the CTV; the native CTV KQAD (380-383) is replaced by the next part; also called E. coli FtsZ with the B. subtilis CTV; source: yeast two-hybrid fusion (pDEST-GADT7-ftsZ(NRNKRG) in S. cerevisiae SL3004, diploid after mating)
B2: GAL4 AD-FtsZ(RQAR) fusion (natural protein, E. coli, UniProt P0A9A6 1-383, looked up)
chain: MFEPMELTNDAVIKVIGVGGGGGNAVEHMVRERIEGVEFFAVNTDAQALRKTAVGQTIQIGSGITKGLGAGANPEVGRNAADEDRDALRAALEGADMVFIAAGMGGGTGTGAAPVVAEVAKDLGILTVAVVTKPFNFEGKKRMAFAEQGITELSKHVDSLITIPNDKLLKVLGRGISLLDAFGAANDVLKGAVQGIAELITRPGLMNVDFADVRTVMSEMGYAMMGSGVASGEDRAEEAAEMAISSPLLEDIDLSGARGVLVNITAGFDLRLDEFETVGNTIRAFASDNATVVIGTSLDPDMNDELRVTVVATGIGMDKRPEITLVTNKQVQQPVMDRYQQHGMAPLTQEQKPVAKVVNDNAPQTAKEPDYLDIPAFLRRQAR
notes: FtsZ of E. coli with the native CTV KQAD replaced by RQAR (net-positive); source: yeast two-hybrid fusion (pDEST-GADT7-ftsZ(RQAR) in S. cerevisiae SL3004, diploid after mating)
B3: GAL4 AD-FtsZ(QQQQ) fusion (natural protein, E. coli, UniProt P0A9A6 1-383, looked up)
chain: B2 chain with R380Q, A382Q, R383Q
notes: FtsZ of E. coli with the native CTV KQAD replaced by QQQQ (net-neutral); source: yeast two-hybrid fusion (pDEST-GADT7-ftsZ(QQQQ) in S. cerevisiae SL3004, diploid after mating)
B4: GAL4 AD-FtsZ(DQAK) fusion (natural protein, E. coli, UniProt P0A9A6 1-383, looked up)
chain: B2 chain with R380D, R383K
notes: FtsZ of E. coli with the native CTV KQAD replaced by DQAK (net-neutral); source: yeast two-hybrid fusion (pDEST-GADT7-ftsZ(DQAK) in S. cerevisiae SL3004, diploid after mating)
B5: FtsZ(1-379) (purified) (domain or fragment, E. coli, UniProt P0A9A6 1-379, looked up)
chain: MFEPMELTNDAVIKVIGVGGGGGNAVEHMVRERIEGVEFFAVNTDAQALRKTAVGQTIQIGSGITKGLGAGANPEVGRNAADEDRDALRAALEGADMVFIAAGMGGGTGTGAAPVVAEVAKDLGILTVAVVTKPFNFEGKKRMAFAEQGITELSKHVDSLITIPNDKLLKVLGRGISLLDAFGAANDVLKGAVQGIAELITRPGLMNVDFADVRTVMSEMGYAMMGSGVASGEDRAEEAAEMAISSPLLEDIDLSGARGVLVNITAGFDLRLDEFETVGNTIRAFASDNATVVIGTSLDPDMNDELRVTVVATGIGMDKRPEITLVTNKQVQQPVMDRYQQHGMAPLTQEQKPVAKVVNDNAPQTAKEPDYLDIPAFLR
notes: also called FtsZ lacking the CTV residues; FtsZ without the CTV region; source: E. coli C41(DE3), purified (25% saturated ammonium sulfate cut)
B6: FtsZ(NRNKRG) (purified) (natural protein, E. coli | B. subtilis)
chain: B1 chain
notes: FtsZ of E. coli up to the CTV; the native CTV KQAD (380-383) is replaced by the next part; also called EcftsZCTVB; source: E. coli C41(DE3), purified (25% saturated ammonium sulfate cut)
B7: FtsZ(DQAK) (purified) (natural protein, E. coli, UniProt P0A9A6 1-383, looked up)
chain: B2 chain with R380D, R383K
notes: FtsZ of E. coli with the native CTV KQAD replaced by DQAK (net-neutral); pKHH9, pET-21b(+); also called net-neutral CTV mutant; source: E. coli C41(DE3), purified (25% saturated ammonium sulfate cut)
B8: FtsZ(QQQQ) (purified) (natural protein, E. coli, UniProt P0A9A6 1-383, looked up)
chain: B2 chain with R380Q, A382Q, R383Q
notes: FtsZ of E. coli with the native CTV KQAD replaced by QQQQ (net-neutral); pLT1, pET-21b(+); also called net-neutral CTV mutant; source: E. coli C41(DE3), purified (25% saturated ammonium sulfate cut)
B9: FtsZ(KQAK) (purified) (natural protein, E. coli, UniProt P0A9A6 1-383, looked up)
chain: B2 chain with R380K, R383K
notes: FtsZ of E. coli with the native CTV KQAD replaced by KQAK (net-positive); pKHH8, pET-21b(+); also called net-positive CTV mutant; source: E. coli C41(DE3), purified (25% saturated ammonium sulfate cut)
B10: FtsZ(DQAD) (purified) (natural protein, E. coli, UniProt P0A9A6 1-383, looked up)
chain: B2 chain with R380D, R383D
notes: FtsZ of E. coli with the CTV DQAD (net-negative) in place of KQAD; pKHH7, pET-21b(+); also called K380D; net-negative CTV mutant; source: E. coli C41(DE3), purified (20% ammonium sulfate cut)
B11: FtsZ(RQAR) (purified) (natural protein, E. coli, UniProt P0A9A6 1-383, looked up)
chain: B2 chain
notes: FtsZ of E. coli with the native CTV KQAD replaced by RQAR (net-positive); pAM3, pET-21b(+); also called net-positive CTV mutant; source: E. coli C41(DE3), purified (25% saturated ammonium sulfate cut)

What follows are binders tested against T1, GAL4 BD-ZapD fusion (assay: two-hybrid; GAL4 BD-ZapD with GAL4 AD-FtsZ fusions in diploid yeast grown in YNB (-Leu-Trp) at 30°C; beta-galactosidase activity in Miller units, mean of 10 independent trials). Conditions: partners not purified.

| β-galactosidase activity [Miller units] | Binder |
| --- | --- |
| 106 | B1 |
| 155 | B2 |
| 115 | B3 |
| 170 | B4 |

Target: the molecule itself
Experiment: sedimentation of FtsZ polymers; FtsZ or CTV mutant 5 μM alone in 50 mM K-MOPS pH 6.5, 50 mM KCl, 2.5 mM MgCl2, 3 μM BSA, 1 mM GTP, room temperature; TLA100.2, 80,000 rpm, 10 min; percent of FtsZ in the pellet by SDS-PAGE
Conditions: not given

| Binder | binding result |
| --- | --- |
| B5 | binds |
| B6 | binds |
| B7 | binds |
| B8 | binds |
| B9 | binds |
| B10 | binds |
| B11 | binds |
